# Assay results from IntAct's records for PubMed 16357825.
# B1: Retinal rod rhodopsin-sensitive cGMP 3',5'-cyclic phosphodiesterase subunit gamma (Homo sapiens), P18545 (parent)
# chain: MNLEPPKAEFRSATRVAGGPVTPRKGPPKFKQRQTRQFKSKPPKKGVQGFGDDIPGMEGLGTDITVICPWEAFNHLELHELAQYGII
# partner: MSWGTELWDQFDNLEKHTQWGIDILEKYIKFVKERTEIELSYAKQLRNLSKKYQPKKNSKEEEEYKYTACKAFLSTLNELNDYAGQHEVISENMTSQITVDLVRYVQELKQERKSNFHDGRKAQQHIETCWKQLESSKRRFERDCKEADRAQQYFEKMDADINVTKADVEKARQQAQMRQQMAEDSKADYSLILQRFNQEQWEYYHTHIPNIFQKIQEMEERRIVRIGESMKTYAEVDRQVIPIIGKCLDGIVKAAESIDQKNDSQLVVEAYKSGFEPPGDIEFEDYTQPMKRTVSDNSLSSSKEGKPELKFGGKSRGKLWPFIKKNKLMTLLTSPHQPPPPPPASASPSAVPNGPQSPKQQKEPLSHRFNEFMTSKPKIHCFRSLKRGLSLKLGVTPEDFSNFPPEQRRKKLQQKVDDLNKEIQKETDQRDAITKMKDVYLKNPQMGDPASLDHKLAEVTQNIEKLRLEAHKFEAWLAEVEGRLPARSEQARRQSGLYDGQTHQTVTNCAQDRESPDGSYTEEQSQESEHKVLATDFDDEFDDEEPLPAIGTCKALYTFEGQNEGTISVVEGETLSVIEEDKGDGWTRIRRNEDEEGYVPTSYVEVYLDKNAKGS
# B2: Retinal rod rhodopsin-sensitive cGMP 3',5'-cyclic phosphodiesterase subunit gamma (Homo sapiens), P18545 (parent)
# chain: B1 chain
# Key:
# fnbp1_rat Fnbp1, Q8R511 = variants of: B1; conditions: with fnbp1_rat Fnbp1, Q8R511
# [1] = variants of: B2; conditions: with pacn2_rat Pacsin2, Q9QY17
# grb2_rat Grb2, P62994 = variants of: B2; conditions: with grb2_rat Grb2, P62994
# src_rat Src, Q9WUD9 = variants of: B2; conditions: with src_rat Src
"effect of a mutation on the interaction (fnbp1_rat Fnbp1, Q8R511)",effect of a mutation on the interaction [1],"effect of a mutation on the interaction (grb2_rat Grb2, P62994)","effect of a mutation on the interaction (src_rat Src, Q9WUD9)",Variant
disrupting interaction,–,–,–,MNLEPPKAEFRSATRVAGGPVTARKGPPKFKQRQTRQFKSKPPKKGVQGFGDDIPGMEGLGTDITVICPWEAFNHLELHELAQYGII [P23A]
disrupting interaction,–,–,–,MNLEPPKAEFRSATRVAGGAVTPRKGPPKFKQRQTRQFKSKPPKKGVQGFGDDIPGMEGLGTDITVICPWEAFNHLELHELAQYGII [P20A]
–,decreasing interaction,decreasing interaction,disrupting interaction,MNLEPPKAEFRSATRVAGGAVTPRKGPPKFKQRQTRQFKSKPPKKGVQGFGDDIPGMEGLGTDITVICPWEAFNHLELHELAQYGII [P20A]
–,decreasing interaction,decreasing interaction,disrupting interaction,MNLEPPKAEFRSATRVAGGPVTARKGPPKFKQRQTRQFKSKPPKKGVQGFGDDIPGMEGLGTDITVICPWEAFNHLELHELAQYGII [P23A]
